Read-outs that look alike come from different tables or passages of the source.
Assays:
[1] = target: T1, human BCMA (full-length, on cells) (human, UniProt Q02223 1-184); test: cell-based or functional assay
T1 sequence: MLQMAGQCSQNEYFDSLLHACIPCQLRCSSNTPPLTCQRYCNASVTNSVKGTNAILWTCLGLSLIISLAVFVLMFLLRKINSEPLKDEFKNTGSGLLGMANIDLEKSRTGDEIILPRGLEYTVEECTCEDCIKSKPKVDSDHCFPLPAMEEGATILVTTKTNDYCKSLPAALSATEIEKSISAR

[2] = target: T2, human GPRC5D (full-length, on cells) (human, UniProt Q9NZD1 1-345); test: flow cytometry, GS-CHO-hGPRC5D cells
T2 construct: whole, on cells; Overexpressed on GS-CHO cells; also the GPRC5D of H929 and L363 myeloma cells in the killing assays; also called hGPRC5D; GS-CHO-hGPRC5D

[3] = target: T1, human BCMA (full-length, on cells); test: cell-based or functional assay; remark: listed apart in the source
[4] = target: T2, human GPRC5D (full-length, on cells); test: flow cytometry, GS-CHO-hGPRC5D cells; remark: listed apart in the source
[5] = target: T3, cynomolgus monkey GPRC5D (full-length, on cells) (cynomolgus monkey, UniProt A0A2K5W6I7 1-300); test: flow cytometry, GS-CHO-cynoGPRC5D cells
T3 construct: also called cynoGPRC5D; GS-CHO-cynoGPRC5D

[6] = target: T4, cynomolgus monkey BCMA (full-length, on cells) (cynomolgus monkey, UniProt A0A2K5UD97 1-183); test: flow cytometry, GS-CHO-cynoBCMA cells
T4 construct: whole, on cells; also called cynoBCMA; GS-CHO-cynoBCMA

[7] = target: T1, human BCMA (full-length, on cells); test: flow cytometry, GS-CHO-hBCMA cells
human CD3E&G-His/Free = target: T5, human CD3E&G-His/Free (human, UniProt P07766 23-126; P09693 23-116); test: BLI (Octet), 1:1 fit
T5 construct: Bought recombinant heterodimer; 'His/Free' as printed (one chain His-tagged); also called human CD3 E&G heterodimer

cyno CD3E&G-His/Free = target: T6, cyno CD3E&G-His/Free (cynomolgus monkey, UniProt Q95LI5 22-117; Q95LI7 23-113); test: BLI (Octet), 1:1 fit
T6 construct: Bought recombinant heterodimer; also called monkey CD3 E&G
T6 sequence (looked up) 1: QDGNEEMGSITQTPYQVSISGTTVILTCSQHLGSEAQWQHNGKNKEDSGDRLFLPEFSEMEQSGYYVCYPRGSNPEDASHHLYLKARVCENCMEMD
T6 sequence (looked up) 2: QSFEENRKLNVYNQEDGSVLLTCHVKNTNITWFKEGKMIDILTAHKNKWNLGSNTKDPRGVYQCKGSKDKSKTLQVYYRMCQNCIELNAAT

Cyno BCMA-His = target: T7, Cyno BCMA-His (cynomolgus monkey, UniProt A0A2K5UD97 1-53); test: BLI (Octet), 1:1 fit
T7 construct: also called Cyno BCMA (ACRO BCA-C52H7); monkey BCMA

[8] = target: T1, human BCMA (full-length, on cells); test: flow cytometry, GS-CHO-hBCMA cells; remark: listed apart in the source
[9] = target: T2, human GPRC5D (full-length, on cells); test: cell-based or functional assay
[10] = target: T2, human GPRC5D (full-length, on cells); test: cell-based or functional assay; remark: listed apart in the source
[11] = target: T2, human GPRC5D (full-length, on cells); test: cell-based or functional assay; remark: listed apart in the source
[12] = target: T1, human BCMA (full-length, on cells); test: cell-based or functional assay; remark: listed apart in the source
[13] = target: T2, human GPRC5D (full-length, on cells); test: cell-based or functional assay; remark: listed apart in the source
[14] = target: T1, human BCMA (full-length, on cells); test: cell-based or functional assay; remark: listed apart in the source

T7 sequence (A0A2K5UD97 entry or part of it): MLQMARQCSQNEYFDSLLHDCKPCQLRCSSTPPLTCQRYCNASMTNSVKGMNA
T5 sequence (P07766 23-126, chain 1 of 2): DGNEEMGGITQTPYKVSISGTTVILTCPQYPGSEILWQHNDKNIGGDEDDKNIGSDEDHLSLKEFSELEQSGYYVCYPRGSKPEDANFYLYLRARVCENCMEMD
T5 sequence (P09693 23-116, chain 2 of 2): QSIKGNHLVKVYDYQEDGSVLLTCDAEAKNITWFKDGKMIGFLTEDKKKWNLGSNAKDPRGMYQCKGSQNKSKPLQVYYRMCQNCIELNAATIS
T2 sequence (Q9NZD1 whole entry): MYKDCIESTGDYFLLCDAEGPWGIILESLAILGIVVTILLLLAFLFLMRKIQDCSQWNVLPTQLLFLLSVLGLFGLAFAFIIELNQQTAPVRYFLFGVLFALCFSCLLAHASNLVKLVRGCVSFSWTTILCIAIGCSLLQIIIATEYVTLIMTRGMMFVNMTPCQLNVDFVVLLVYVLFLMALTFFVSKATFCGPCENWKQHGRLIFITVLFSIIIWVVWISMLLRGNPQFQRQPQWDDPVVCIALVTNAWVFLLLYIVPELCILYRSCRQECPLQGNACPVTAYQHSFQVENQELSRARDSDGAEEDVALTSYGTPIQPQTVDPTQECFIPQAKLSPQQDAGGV
T3 sequence (A0A2K5W6I7 entry or part of it limits assumed, form in doubt): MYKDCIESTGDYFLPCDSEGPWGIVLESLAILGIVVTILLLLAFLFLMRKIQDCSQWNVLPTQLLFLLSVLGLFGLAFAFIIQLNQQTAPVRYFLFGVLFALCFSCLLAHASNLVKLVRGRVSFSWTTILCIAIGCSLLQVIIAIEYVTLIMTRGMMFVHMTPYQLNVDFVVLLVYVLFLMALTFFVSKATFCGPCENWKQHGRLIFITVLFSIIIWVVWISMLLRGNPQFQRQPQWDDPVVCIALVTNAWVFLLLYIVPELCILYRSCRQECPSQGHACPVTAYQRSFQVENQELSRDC
T4 sequence (A0A2K5UD97 entry or part of it): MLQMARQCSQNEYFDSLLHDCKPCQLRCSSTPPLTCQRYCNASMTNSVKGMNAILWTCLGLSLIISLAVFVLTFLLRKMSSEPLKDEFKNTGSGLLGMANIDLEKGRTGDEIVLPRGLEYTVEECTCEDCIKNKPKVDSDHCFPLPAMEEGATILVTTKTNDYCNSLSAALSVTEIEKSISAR

B1: F2 (87) (F2-SP34.87-SC38497) (trispecific antibody, human IgG1, kappa, lambda, L234A L235A)
heavy 1: not shown
light 1: DIVMTQSPDSLAVSLGERATINCRASESVDSYGITFMNWYQQKPGQPPKLLIYAASNQGSGVPDRFSGSGSGTDFTLTISSLQAEDVAVYYCQQSKEVPWTFGQGTKLEIKRTVAAPSVFIFPPSDEQLKSGTASVVCLLNNFYPREAKVQWKVDNALQSGNSQESVTEQDSKDSTYSLSSTLTLSKADYEKHKVYACEVTHQGLSSPVTKSFNRGEC
heavy 2: EVQLVESGGGLVQPGGSLKLSCAASGFTFNTYAMNWVRQASGKGLEWVGRIRSKYNNYATYYADSVKDRFTISRDDSKSTLYLQMNSLKTEDTAVYYCARHYNFGQSYVSWFAYWGQGTTVTVSSASTKGPSVFPLAPSSKSTSGGTAALGCLVKDYFPEPVTVSWNSGALTSGVHTFPAVLQSSGLYSLSSVVTVPSSSLGTQTYICNVNHKPSNTKVDKKVEPKSCDKTHTCPPCPAPEAAGGPSVFLFPPKPKDTLMISRTPEVTCVVVDVSHEDPEVKFNWYVDGVEVHNAKTKPREEQYNSTYRVVSVLTVLHQDWLNGKEYKCKVSNKALPAPIEKTISKAKGQPREPQVYTLPPSRDELTKNQVSLSCAVKGFYPSDIAVEWESNGQPENNYKTTPPVLDSDGSFFLVSKLTVDKSRWQQGNVFSCSVMHEALHNHYTQKSLSLSPGAGGGGSGGGGSDIQMTQSPSSLSASVGDRVTITCRASQSISRYLNWYQQKPGKAPKLLIYAASSLQSGVPSRFSGSGSGTDFTLTISSLQPEDFATYYCQQKYFDITFGCGTKVEIKGGGGSGGGGSGGGGSQLQLQESGPGLVKPSETLSLTCTVSGGSIVSSSYYWTWIRQPPGKCLEWIGSISIAGSTYYNPSLKSRVTISVDTSKNQFSLKLSSVTAADTAVYYCARDRGDQILDVWSQGTMVTVSS
light 2: QAVVTQEPSLTVSPGGTVTLTCRSSTGAVTTSNYANWVQQKPGQAPRGLIGGTNKRAPGVPARFSGSLLGDKAALTLLGAQPEDEAEYYCALWYSNLWVFGQGTKLTVLGQPKAAPSVTLFPPSSEELQANKATLVCLISDFYPGAVTVAWKADSSPVKAGVETTTPSKQSNNKYAASSYLSLTPEQWKSHRSYSCQVTHEGSTVEKTVAPTECS
Q: B1 was tested. Which “EC50 of PBMC killing of H929 ko GPRC5D cells (LDH)” value [1] did it give?
A: Its value is 0.428 nM.

Q: And the EC50 [2]?
A: Its EC50 is 98.6 nM.

Q: What about the “EC50 of PBMC killing of H929 ko GPRC5D cells (LDH)” value [3] of the same binder?
A: Its value is 0.0677 nM.

Q: And the EC50 [4]?
A: Its EC50 is 94.1 nM.

Q: And the EC50 [5]?
A: The EC50 was 196 nM.

Q: What about the EC50 [6] of the same binder?
A: The EC50 was 117 nM.

Q: And the EC50 [7]?
A: The EC50 was 211 nM.

Q: What about the Kd (human CD3E&G-His/Free) of the same binder?
A: Its Kd is 55 nM.

Q: And the koff (human CD3E&G-His/Free)?
A: The koff was 0.0131 s⁻¹.

Q: What about the kon (human CD3E&G-His/Free) of the same binder?
A: Its kon is 239000 M⁻¹ s⁻¹.

Q: What about the Kd (cyno CD3E&G-His/Free) of the same binder?
A: The Kd was 71.1 nM.

Q: What about the koff (cyno CD3E&G-His/Free) of the same binder?
A: Its koff is 0.0124 s⁻¹.

Q: And the kon (cyno CD3E&G-His/Free)?
A: The kon was 175000 M⁻¹ s⁻¹.

Q: And the Kd (Cyno BCMA-His)?
A: Its Kd is 1.55 nM.

Q: And the koff (Cyno BCMA-His)?
A: Its koff is 0.000961 s⁻¹.

Q: And the kon (Cyno BCMA-His)?
A: Its kon is 621000 M⁻¹ s⁻¹.

Q: What about the EC50 [8] of the same binder?
A: Its EC50 is 120 nM.

Q: And the “EC50 of PBMC killing of H929 ko BCMA cells, donor1” value [9]?
A: Its value is 0.0342 nM.

Q: And the “EC50 of PBMC killing of H929 ko BCMA cells (LDH)” value [10]?
A: The value was 0.00739 nM.

Q: And the “EC50 of PBMC killing of H929 ko BCMA cells (LDH)” value [11]?
A: Its value is 0.0256 nM.

Q: And the “EC50 of PBMC killing of H929 ko GPRC5D cells, donor1” value [12]?
A: The value was 0.0304 nM.

B2: Inno-G (hz5E12_sp34.24_Hel_triFab) (trispecific antibody, human IgG1, kappa, lambda, L234A L235A)
heavy 1: not shown
light 1: DIVMTQSPDSLAVSLGERATINCRASESVDSYGITFMNWYQQKPGQPPKLLIYAASNQGSGVPDRFSGSGSGTDFTLTISSLQAEDVAVYYCQQSKEVPWTFGQGTKLEIKRTVAAPSVFIFPPSDEQLKSGTASVVCLLNNFYPREAKVQWKVDNALQSGNSQESVTEQDSKDSTYSLSSTLTLSKADYEKHKVYACEVTHQGLSSPVTKSFNRGEC
heavy 2: not shown
light 2: DIQMTQSPSSLSASVGDRVTITCRASQSISSYLNWYQDKPGKAPKLLIYAASSLQSGVPSRFSGSGSGTDFTLTISSLQPEDFATYYCQQADLPAFAFGGGTKVEIKRTVAAPSVFIFPPSDECLKSGTASVVCLLNNFYPREAKVQWKVDNALQSGNSQESVTEQDSKDSTYSLSSTLTLSKADYEKHKVYACEVTHQGLSSPVTKSFNRGES
light 3: QAVVTQEPSLTVSPGGTVTLTCRSSTGAVTTSNYANWVQKKPGQAPRGLIGGTNKRAPGVPARFSGSLLGDKAALTLLGAQPEDEAEYYCALWYSNLWVFGQGTKLTVLGQPKAAPSVTLFPPSSEELQANKATLVCLISDFYPGAVTVAWKADSSPVKAGVETTTPSKQSNNKYAASSYLSLTPEQWKSHRSYSCQVTHEGSTVEKTVAPTECS
Q: With B2 as the binder, how does the “EC50 of PBMC killing of L363 cells” value [13] read?
A: Its value is 0.355 nM.

B3: Inno-G-7F5.3 (trispecific antibody, human IgG1, kappa, lambda, L234A L235A)
heavy 1: not shown
light 1: not shown
heavy 2: not shown
light 2: DIQMTQSPSSLSASVGDRVTITCRASQSISSYLNWYQDKPGKAPKLLIYAASSLQSGVPSRFSGSGSGTDFTLTISSLQPEDFATYYCQQADLPAFAFGGGTKVEIKRTVAAPSVFIFPPSDECLKSGTASVVCLLNNFYPREAKVQWKVDNALQSGNSQESVTEQDSKDSTYSLSSTLTLSKADYEKHKVYACEVTHQGLSSPVTKSFNRGES
light 3: QAVVTQEPSLTVSPGGTVTLTCRSSTGAVTTSNYANWVQKKPGQAPRGLIGGTNKRAPGVPARFSGSLLGDKAALTLLGAQPEDEAEYYCALWYSNLWVFGQGTKLTVLGQPKAAPSVTLFPPSSEELQANKATLVCLISDFYPGAVTVAWKADSSPVKAGVETTTPSKQSNNKYAASSYLSLTPEQWKSHRSYSCQVTHEGSTVEKTVAPTECS
Q: B3 was tested. Which “EC50 of PBMC killing of L363 cells” value [13] did it give?
A: The value was 1.07 nM.

B4: Inno-B (Hel_sp34.24_497_triFab) (trispecific antibody, human IgG1, kappa, lambda, L234A L235A)
heavy 1: not shown
light 1: not shown
heavy 2: not shown
light 2: DIQMTQSPSSLSASVGDRVTITCRASQSISRYLNWYQDKPGKAPKLLIYAASSLQSGVPSRFSGSGSGTDFTLTISSLQPEDFATYYCQQKYFDITFGGGTKVEIKRTVAAPSVFIFPPSDECLKSGTASVVCLLNNFYPREAKVQWKVDNALQSGNSQESVTEQDSKDSTYSLSSTLTLSKADYEKHKVYACEVTHQGLSSPVTKSFNRGES
light 3: QAVVTQEPSLTVSPGGTVTLTCRSSTGAVTTSNYANWVQKKPGQAPRGLIGGTNKRAPGVPARFSGSLLGDKAALTLLGAQPEDEAEYYCALWYSNLWVFGQGTKLTVLGQPKAAPSVTLFPPSSEELQANKATLVCLISDFYPGAVTVAWKADSSPVKAGVETTTPSKQSNNKYAASSYLSLTPEQWKSHRSYSCQVTHEGSTVEKTVAPTECS
Q: Which “EC50 of PBMC killing of L363 cells” value [14] does the source give for B4 here?
A: Its value is 0.192 nM.

From patent EP4725970A1 (Fortvita Biologics Inc., dated 2026)
